From publication PMC8217511, “Tuning SAS-6 architecture with monobodies impairs distinct steps of centriole assembly” (Nature Communications, 2021) come the findings set out here.

Data set [1] concerns the molecule itself. Nature of the data set: crystal structure; CrSAS-6 combined with a 2x molar excess of monobody, complex purified by SEC; sitting drop vapor diffusion at 18 °C. (In general: In gel filtration, larger molecules generally elute earlier.)
Data set [2] concerns the molecule itself. The experiment in a line: PORT-HS-AFM; CrSAS-6_NL adsorbed on mica, 11-16 nM (equilibrium) or 44 nM (assembly reaction); 150 mM KCl, 20 mM Tris-HCl pH 8.0; monobodies at 6.8 µM, 14.5 µM and 12.9 µM.

B1: CrSAS-6_6HR-[F145E] (domain or fragment, Chlamydomonas reinhardtii, UniProt A9CQL4 1-226, looked up)
chain: MPLLLDDGDPKAQTGFDLSTATTLFWRPVPVHVKQQDREDVLEELTFRILTGVAKQNHNLRILRIHISSDSDLFFLHTLEVSEEDFQSLKNDQGILVDFASFPGKIISLLEKCILAQPGDSPRFQAVLTIRGGESVFKIVEINDEKQLPHITLAFRPGNDSVVKQFLAFRLSEVKGTCHDLSDDLSRTRDDRDSMVAQLAQCRQQLAQLREQYDKHLLEVQAQAKT
notes: SAS-6 of Chlamydomonas reinhardtii, residues 1-226 (limits as for CrSAS-6_6HR) with F145E; arranged as homodimers in the crystal; also called CrSAS-6_6HR harboring the mutation F145E; source: E. coli BL21(DE3), purified (HisTrap, tag cleavage by protease, SEC); not shown: His6, N-terminal, cleaved; AVI-tag, N-terminal, cleaved
In the case of B1, in data set [1], the binding result is reported as “binds”.

B2: CrSAS-6_6HR, N-terminal domain and six heptad repeats of the coiled-coil of Chlamydomonas reinhardtii SAS-6 (domain or fragment, UniProt A9CQL4 1-226, looked up)
chain: MPLLLDDGDPKAQTGFDLSTATTLFWRPVPVHVKQQDREDVLEELTFRILTGVAKQNHNLRILRIHISSDSDLFFLHTLEVSEEDFQSLKNDQGILVDFASFPGKIISLLEKCILAQPGDSPRFQAVLTIRGGESVFKIVEINDFKQLPHITLAFRPGNDSVVKQFLAFRLSEVKGTCHDLSDDLSRTRDDRDSMVAQLAQCRQQLAQLREQYDKHLLEVQAQAKT
notes: homodimer through the coiled-coil; source: E. coli BL21(DE3), purified (HisTrap, tag cleavage by protease, SEC); not shown: His6, N-terminal, cleaved; AVI-tag, N-terminal, cleaved
Regarding B2, the binding result in data set [1] is “binds”.

B3: CrSAS-6_N, N-terminal globular domain of Chlamydomonas reinhardtii SAS-6 (domain or fragment, UniProt A9CQL4 1-159, looked up)
chain: MPLLLDDGDPKAQTGFDLSTATTLFWRPVPVHVKQQDREDVLEELTFRILTGVAKQNHNLRILRIHISSDSDLFFLHTLEVSEEDFQSLKNDQGILVDFASFPGKIISLLEKCILAQPGDSPRFQAVLTIRGGESVFKIVEINDFKQLPHITLAFRPGN
notes: SAS-6 of Chlamydomonas reinhardtii, N-terminal globular head domain, residues 1-159 (the methods list the two ranges in the reverse order of the two names); source: E. coli BL21(DE3), purified (HisTrap, tag cleavage by protease, SEC); not shown: His6, N-terminal, cleaved; AVI-tag, N-terminal, cleaved
In the case of B3, the binding result in data set [1] is “binds”.

B4: CrSAS-6_NL, N-terminal head domain and the entire coiled-coil of Chlamydomonas reinhardtii SAS-6 (domain or fragment, UniProt A9CQL4 1-503, looked up)
chain: MPLLLDDGDPKAQTGFDLSTATTLFWRPVPVHVKQQDREDVLEELTFRILTGVAKQNHNLRILRIHISSDSDLFFLHTLEVSEEDFQSLKNDQGILVDFASFPGKIISLLEKCILAQPGDSPRFQAVLTIRGGESVFKIVEINDFKQLPHITLAFRPGNDSVVKQFLAFRLSEVKGTCHDLSDDLSRTRDDRDSMVAQLAQCRQQLAQLREQYDKHLLEVQAQAKTQQASAHEERIREKSQLKDQFEKERGEMEGRYRDQIAALNTRLGELDTENRKLREVKYELDTKVSELSHKLGSSEGSNRSLEEETARLRSLNQQLSSSKHELEIQLNEAKAKVLALDEKAQSQGDVIEQQRGRLRDMEAALRQTEQRCADLRDTLASAEGRAKEAQAEVLKGNQAIEKLTNDLRLAKEKTKRKAAIILRQEEELQEREQSLANATRDVGVLGQQAESLRKDVASLHSENDSLRSKLEDSKQQLQSNEQMIRWLNQQVTEAQLHASGAT
notes: SAS-6 of Chlamydomonas reinhardtii, N-terminal head domain and entire coiled-coil, residues 1-503; pFLOAT2-His vector, PreScission Protease site after the His tag; homodimers that assemble into ring polymers; source: E. coli BL21(DE3), purified (HisTrap, SEC)
As for B4, the binding result in data set [2] is on record as “binds”.
